The record followed here is US20250223359A1 (published 2025).

One may read the Kd as the constant that tells how readily two partners part at equilibrium.

Substitutions are numbered along the chain they refer to.

T1: human CD19 (human, UniProt P15391 20-556)
T1 construct: whole, on cells; also called huCD19; hCD19
T1 sequence (looked up): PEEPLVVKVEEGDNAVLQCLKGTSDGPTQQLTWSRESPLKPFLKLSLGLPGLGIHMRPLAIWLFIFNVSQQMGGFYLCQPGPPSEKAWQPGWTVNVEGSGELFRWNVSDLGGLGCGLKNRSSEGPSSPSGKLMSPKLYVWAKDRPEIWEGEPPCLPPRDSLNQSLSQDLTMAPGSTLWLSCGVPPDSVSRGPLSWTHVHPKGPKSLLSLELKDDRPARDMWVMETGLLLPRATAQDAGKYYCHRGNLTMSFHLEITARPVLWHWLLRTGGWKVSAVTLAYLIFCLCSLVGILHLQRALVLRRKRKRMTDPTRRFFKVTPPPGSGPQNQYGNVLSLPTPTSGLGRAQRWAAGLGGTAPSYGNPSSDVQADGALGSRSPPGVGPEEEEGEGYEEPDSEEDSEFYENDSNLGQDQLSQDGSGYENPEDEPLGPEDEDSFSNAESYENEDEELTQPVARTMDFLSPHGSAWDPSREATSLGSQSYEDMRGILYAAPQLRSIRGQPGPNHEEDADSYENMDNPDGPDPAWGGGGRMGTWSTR

B1: CD58 Full ECD (ligand)
chain: SQQIYGVVYGNVTFHVPSNVPLKEVLWKKQKDKVAELENSEFRAFSSFKNRVYLDTVSGSLTIYNLTSSDEDEYEMESPNITDTMKFFLYVLESLPSPTLTCALTNGSIEVQCMIPEHYNSHRGLIMYSWDCPMEQCKRNSTSIYFKMENDLPQKIQCTLSNPLFNTTSSIILTTCIPSSGHSRHRGGGGSHHHHHHHH
B2: Human CD2 (recombinant extracellular domain, Avi-tagged) (receptor)
chain: KEITNALETWGALGQDINLDIPSFQMSDDIDDIKWEKTSDKKKIAQFRKEKETFKEKDTYKLFKNGTLKIKHLKTDDQDIYKVSIYDTKGKNVLEKIFDLKIQERVSKPKISWTCINTTLTCEVMNGTDPELNLYQDGKHLKLSQRVITHKWTTSLSAKFKCTAGNKVSKESSVEPVSCPEKGLD
modifications: site selectively biotinylated during expression (C-terminal Avi-Tag, BirA co-transfection)
notes: Produced in HEK293 cells; also called recombinant human CD2
B3: CD3hi TSP2 (R variant) (other)
heavy: EVQLVQSGAEVKKPGESLKISCKASGYSFTNYWMNWVRQMPGKGLEWMGMIHPSDSEIRLNQKFQGQVTLSVDKSIGTAYMQWSSLKASDTAMYYCSRWYYLSSPMDYWGQGTTVTVSSASTKGPSVFPLAPSSKSTSGGTAALGCLVKDYFPEPVTVSWNSGALTSGVHTFPAVLQSSGLYSLSSVVTVPSSSLGTQTYICNVNHKPSNTKVDKRVEPKSCGGGGSGGGGSEVQLVESGGGLVQPGGSLKLSCAASGFTFNTYAMNWVRQASGKGLEWVGRIRSKYNNYATYYADSVKDRFTISRDDSKSTLYLQMNSLKTEDTAVYYCVRHGNFGNSYVSWFAYWGQGTLVTVSSGGGGSGGGGSGGGGSGGGGSQAVVTQEPSLTVSPGGTVTLTCRSSTGAVTTSNYANWVQQKPGQAPRGLIGGTNKRAPWTPARFSGSLLGDKAALTLSGAQPEDEAEYFCALWYSNLWVFGGGTKLTVLGGGGSDKTHTCPPCPAPELLGGPSVFLFPPKPKDTLMISRTPEVTCVVVAVSHEDPEVKFNWYVDGVEVHNAKTKPREEQYASTYRVVSVLTVLHQDWLNGKEYKCKVSNKALAAPIEKTISKAKGQPREPQVCTLPPSREEMTKNQVSLSCAVKGFYPSDIAVEWESNGQPENNYKTTPPVLDSDGSFFLVSKLTVDKSRWQQGNVFSCSVMHEALHNHYTQKSLSLSPGK
light: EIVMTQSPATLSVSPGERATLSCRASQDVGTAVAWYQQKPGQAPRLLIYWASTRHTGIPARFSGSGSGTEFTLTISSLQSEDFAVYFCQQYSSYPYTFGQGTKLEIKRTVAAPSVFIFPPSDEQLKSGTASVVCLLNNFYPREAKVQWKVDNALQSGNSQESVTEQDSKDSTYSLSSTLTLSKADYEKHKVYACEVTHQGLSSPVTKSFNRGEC
chain: SQQIYGVVYGNVTFHVPSNVPLKEVLWKKQKDKVAELENSEFRAFSSFKNRVYLDTVSGSLTIYNLTSSDEDEYEMESPNITDTMKFFLYVLESGGGGSDKTHTCPPCPAPELLGGPSVFLFPPKPKDTLMISRTPEVTCVVVAVSHEDPEVKFNWYVDGVEVHNAKTKPREEQYASTYRVVSVLTVLHQDWLNGKEYKCKVSNKALAAPIEKTISKAKGQPREPQVYTLPPCREEMTKNQVSLWCLVKGFYPSDIAVEWESNGQPENNYKTTPPVLDSDGSFFLYSKLTVDKSRWQQGNVFSCSVMHEALHNRYTQKSLSLSPGK
notes: also called CD19_NEG218_CD3_16nM-CD58 Trispecific; αCD19(NEG218)-αCD3-CD58IgV
B4: CD3hi TSP1 (R variant) (other)
heavy: QVQLVQSGAEVKKPGASVKVSCKASGYTFTTYWIQWVRQAPGQRLEWMGAVYPGDADTRYTQKFQGRVTLTADRSASTAYMELSSLRSEDTAVYYCGRDAGLEYYALDYWGQGTLVTVSSASTKGPSVFPLAPSSKSTSGGTAALGCLVKDYFPEPVTVSWNSGALTSGVHTFPAVLQSSGLYSLSSVVTVPSSSLGTQTYICNVNHKPSNTKVDKRVEPKSCGGGGSGGGGSEVQLVESGGGLVQPGGSLKLSCAASGFTFNTYAMNWVRQASGKGLEWVGRIRSKYNNYATYYADSVKDRFTISRDDSKSTLYLQMNSLKTEDTAVYYCVRHGNFGNSYVSWFAYWGQGTLVTVSSGGGGSGGGGSGGGGSGGGGSQAVVTQEPSLTVSPGGTVTLTCRSSTGAVTTSNYANWVQQKPGQAPRGLIGGTNKRAPWTPARFSGSLLGDKAALTLSGAQPEDEAEYFCALWYSNLWVFGGGTKLTVLGGGGSDKTHTCPPCPAPELLGGPSVFLFPPKPKDTLMISRTPEVTCVVVAVSHEDPEVKFNWYVDGVEVHNAKTKPREEQYASTYRVVSVLTVLHQDWLNGKEYKCKVSNKALAAPIEKTISKAKGQPREPQVCTLPPSREEMTKNQVSLSCAVKGFYPSDIAVEWESNGQPENNYKTTPPVLDSDGSFFLVSKLTVDKSRWQQGNVFSCSVMHEALHNHYTQKSLSLSPGK
light: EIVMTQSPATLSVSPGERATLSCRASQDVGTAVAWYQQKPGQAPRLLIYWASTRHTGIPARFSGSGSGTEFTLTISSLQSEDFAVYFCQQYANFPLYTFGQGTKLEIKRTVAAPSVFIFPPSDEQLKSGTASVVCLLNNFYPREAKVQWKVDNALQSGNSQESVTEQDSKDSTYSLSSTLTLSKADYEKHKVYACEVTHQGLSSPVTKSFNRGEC
chain: B3 chain
notes: also called CD19_NEG258_CD3_16nM-CD58 Trispecific; αCD19(NEG258)-αCD3(16 nM)-αCD58IgV
B5: CD58_IgV (ligand)
chain: SQQIYGVVYGNVTFHVPSNVPLKEVLWKKQKDKVAELENSEFRAFSSFKNRVYLDTVSGSLTIYNLTSSDEDEYEMESPNITDTMKFFLYVLESGGGGSHHHHHHHH
notes: also called CD58 domain 1; IgV WT
B6: CD58 IgV V45C_M114C (ligand)
chain: B5 chain with V16C, M85C
notes: Disulfide-stabilized variant
B7: CD58 IgV V45C_M105C (ligand)
chain: B5 chain with V16C, M76C
notes: Disulfide-stabilized variant
B8: CD58 IgV V54C_G88C (ligand)
chain: B5 chain with V25C, G59C
notes: Disulfide-stabilized variant

In assay [1] the target is B2. The assay is described as follows: ITC; 100 uM CD2 titrated into 10 uM CD58 variant in HBS. The procedure:
(§1) To ensure the binding affinity remained uncompromised by the additional of the stabilizing disulfide variance, isothermal calorimetry (ITC) was performed on the resulting recombinant CD58 proteins to determine their apparent KD and binding stoicheometry (n) to recombinant human CD2.
(§2) Briefly, recombinant human CD2 and recombinant human CD58 variants were dialyzed into HEPES-buffered saline (HBS). CD2 was diluted to final concentration of 100 μM, CD58 variants were diluted to 10 μM. CD2 was titrated into 10 μM of CD58 variants via multiple injections and ΔH (kcal/mole) determined using a MicroCal VP-ITC isothermal titration calorimeter (Malvern). Titrations of CD2 into HBS were used as a reference and KD and n determined from the resulting data.
Background: Isothermal titration calorimetry measures the heat released or taken up as one component is titrated into another.

In assay [2] the target is B1. Described as above. The method, then: as §1, §2
The target in assay [3] is T1, human CD19. The assay is described as follows: flow cytometry on murine 300.19 cells overexpressing human CD19; serial dilutions; anti-human Fc Alexa-647 secondary.
Assay [4] addresses T1, human CD19. As to the kind of experiment: flow cytometry on 300.19 cells overexpressing human CD19 (figure legend). (In flow cytometry, cells or beads pass a laser one at a time.)

On to B1, for which the “n (binding stoichiometry)” value in assay [1] turned out to be 0.92. Regarding B2, the affinity in assay [2], expressed as Kd, was 570 nM. Regarding B3, the binding result in assay [3] is listed as “binds”. On to B4, for which the binding result in assay [4] was “binds”. Regarding B5, in assay [1], the dissociation constant (Kd) came to 610 nM and the “n (binding stoichiometry)” value turned out to be 0.96. As to B6, in assay [1], the Kd is 380 nM and the “n (binding stoichiometry)” value was found to be 0.88. For B7, in that order: 880 nM and 0.97.

Take B8: in assay [1], the Kd came to 600 nM and the “n (binding stoichiometry)” value stood at 0.83.
